Assays:
[1] = molecular target: T1, Human CLEC12A expressed on cells (Ba/F3-hCLEC12A, PL21, HL60) (human, UniProt Q5QGZ9 1-265); assay: cell-based or functional assay
T1 sequence: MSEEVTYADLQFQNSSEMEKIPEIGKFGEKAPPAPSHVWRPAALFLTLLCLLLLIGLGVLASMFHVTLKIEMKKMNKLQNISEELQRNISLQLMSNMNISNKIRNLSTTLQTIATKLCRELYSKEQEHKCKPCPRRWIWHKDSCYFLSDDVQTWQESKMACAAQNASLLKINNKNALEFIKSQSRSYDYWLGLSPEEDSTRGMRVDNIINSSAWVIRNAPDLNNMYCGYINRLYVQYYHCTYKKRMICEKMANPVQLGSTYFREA

[2] = molecular target: T2, Human CLEC12A-His (recombinant, K244 WT) (human, UniProt Q5QGZ9 65-265); assay: SPR 37C, two-state fit (kd1), average
T2 construct: Made in house (Dragonfly Tx); also called hCLEC12A; hCLEC12A-His; not shown: His tag
T2 sequence: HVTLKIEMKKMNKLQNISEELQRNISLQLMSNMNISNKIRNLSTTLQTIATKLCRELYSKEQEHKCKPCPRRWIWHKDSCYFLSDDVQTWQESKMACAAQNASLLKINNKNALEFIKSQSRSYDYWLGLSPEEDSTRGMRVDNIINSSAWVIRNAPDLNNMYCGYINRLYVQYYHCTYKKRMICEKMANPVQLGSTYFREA

[3] = molecular target: T2, Human CLEC12A-His (recombinant, K244 WT); assay: SPR, two-state fit (ka1); control sample
Protocol: (§1) Briefly, human Fc specific antibodies were covalently immobilized at a density ˜8000-10000 resonance units (RU) on carboxy methyl dextran matrix of a CM5 biosensor chip via amine-coupling chemistry to create an anti-hFc IgG chip. […] Association was monitored for 300 seconds and dissociation was monitored for 600 seconds. Surfaces were regenerated between cycles with three pulses of 10 mM glycine-HCl, pH 1.7 injected for 20 seconds at 100 μl/min. HBS-EP+ (1×) with 0.1 mg/ml BSA was used as running buffer throughout the experiment. Experiments were performed at physiological temperature of 37° C. To obtain kinetic rate constants and overall binding affinity, double-referenced data were fit to a two-state kinetic model using Biacore 8K Insight Evaluation software (Cytiva).

[4] = molecular target: T2, Human CLEC12A-His (recombinant, K244 WT); assay: SPR, two-state fit (kd1); after 4 wks 40C in CST pH 7.0
Protocol: as §1

[5] = molecular target: T2, Human CLEC12A-His (recombinant, K244 WT); assay: SPR, two-state fit; fully purified protein after low pH hold
Protocol: as §1

Human CLEC12A-His [6] = molecular target: T3, Human CLEC12A-His (human, UniProt Q5QGZ9 65-265); assay: SPR; sample after low pH hold
T3 construct: Recombinant soluble protein made in house; also called hCLEC12A-His; hCLEC12A; not shown: His tag
T3 sequence: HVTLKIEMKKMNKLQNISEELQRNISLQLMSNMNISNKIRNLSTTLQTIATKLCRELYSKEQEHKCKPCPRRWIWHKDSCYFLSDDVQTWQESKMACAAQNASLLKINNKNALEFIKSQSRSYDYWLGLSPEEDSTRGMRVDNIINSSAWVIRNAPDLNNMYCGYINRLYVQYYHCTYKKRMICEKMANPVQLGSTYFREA

mFc-hNKG2D [7] = molecular target: T4, mFc-hNKG2D (human, UniProt P26718 73-216); assay: SPR; sample after low pH hold
T4 construct: extracellular domain; Recombinant mFc-tagged NKG2D dimer, made in house; also called human NKG2D; not shown: mouse Fc tag
T4 sequence (looked up): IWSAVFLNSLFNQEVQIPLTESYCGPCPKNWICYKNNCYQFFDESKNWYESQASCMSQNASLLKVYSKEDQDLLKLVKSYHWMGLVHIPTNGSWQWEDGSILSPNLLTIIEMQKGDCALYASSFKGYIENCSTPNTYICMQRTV

Human CD16a V158 [8] = molecular target: T5, Human CD16a V158 (human, UniProt P08637 17-208, biotinylated); assay: SPR; sample after low pH hold
T5 construct: Bought recombinant receptor; also called hCD16a (V158); hFcγRIIIa V158

Human CD16a V158 [9] = molecular target: T5, Human CD16a V158; assay: SPR, summary of FcγR affinities
Human CD16a F158 = molecular target: T6, Human CD16a F158 (human, UniProt P08637 17-208, biotinylated); assay: SPR, summary of FcγR affinities
T6 construct: Bought recombinant receptor; also called hFcγRIIIa F158

Cynomolgus CD16 = molecular target: T7, Cynomolgus CD16 (cynomolgus monkey, UniProt Q8SPW2 17-208, biotinylated); assay: SPR, summary of FcγR affinities
T7 construct: Bought recombinant receptor; also called cFcγRIII; Cynomolgus FcγRIII

Human CD32a R131 = molecular target: T8, Human CD32a R131 (human, UniProt P12318 36-218, limits assumed, biotinylated); assay: SPR, summary of FcγR affinities
T8 construct: Bought recombinant receptor; also called hFcγRIIa R131
T8 sequence (looked up): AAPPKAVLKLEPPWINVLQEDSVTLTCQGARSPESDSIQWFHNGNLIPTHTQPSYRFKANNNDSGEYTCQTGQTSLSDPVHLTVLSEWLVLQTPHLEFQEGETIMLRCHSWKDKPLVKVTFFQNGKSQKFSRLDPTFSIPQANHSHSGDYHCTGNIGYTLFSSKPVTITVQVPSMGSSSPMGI

Human CD32b = molecular target: T9, Human CD32b (human, UniProt P31994 46-217, limits assumed, biotinylated); assay: SPR, summary of FcγR affinities
T9 construct: Bought recombinant receptor; also called hFcγRIIb
T9 sequence (looked up): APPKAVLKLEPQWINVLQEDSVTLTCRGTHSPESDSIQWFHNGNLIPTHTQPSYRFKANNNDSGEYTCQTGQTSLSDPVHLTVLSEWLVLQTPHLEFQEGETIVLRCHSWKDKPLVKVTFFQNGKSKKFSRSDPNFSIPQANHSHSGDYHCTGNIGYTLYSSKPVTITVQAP

Human CLEC12A-His [10] = molecular target: T3, Human CLEC12A-His; assay: SPR; sample after pH 5.0, 40 C, 2 weeks
mFc-hNKG2D [11] = molecular target: T4, mFc-hNKG2D; assay: SPR; sample after pH 5.0, 40 C, 2 weeks
Human CD16a V158 [12] = molecular target: T5, Human CD16a V158; assay: SPR; sample after pH 5.0, 40 C, 2 weeks
Human CD16a V158 [13] = molecular target: T5, Human CD16a V158; assay: SPR, hCD16a V158 captured, kinetic fit; average for AB0192

T5 sequence (P08637 17-208 F176V limits assumed): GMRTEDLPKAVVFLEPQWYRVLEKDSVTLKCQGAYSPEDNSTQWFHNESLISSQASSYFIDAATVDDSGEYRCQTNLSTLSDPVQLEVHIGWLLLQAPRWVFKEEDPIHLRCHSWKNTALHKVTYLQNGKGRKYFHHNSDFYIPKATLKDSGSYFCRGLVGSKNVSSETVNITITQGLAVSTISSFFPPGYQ
T6 sequence (P08637 17-208 limits assumed): as the sequence (P08637 17-208 F176V limits assumed) above, with V160F counted along it
T7 sequence (Q8SPW2 17-208 limits assumed): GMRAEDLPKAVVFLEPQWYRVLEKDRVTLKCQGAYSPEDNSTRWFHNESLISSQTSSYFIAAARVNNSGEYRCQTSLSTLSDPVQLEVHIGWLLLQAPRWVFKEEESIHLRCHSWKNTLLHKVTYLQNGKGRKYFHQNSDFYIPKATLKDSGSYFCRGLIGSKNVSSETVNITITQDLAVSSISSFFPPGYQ

B1: AB0089 TriNKET (bispecific antibody, human IgG1, kappa)
chain: QLQLQESGPGLVKPSETLSLTCTVSGFSLTNYGLHWIRQPPGKCLEWIGVIWVGGATDYNPSLKSRVTISVDTSKNQFSLKLSSVQAADTAVYYCAKGDYGDTLDYWGQGTLVTVSSGGGGSGGGGSGGGGSGGGGSDIQMTQSPSSLSASVGDRVTITCHASQNINFWLSWYQQKPGKAPKLLIYEASNLHTGVPSRFSGSGSGTDFTLTISSLQPEDFATYYCQQSHSYPLTFGCGTKLEIKGSDKTHTCPPCPAPELLGGPSVFLFPPKPKDTLMISRTPEVTCVVVDVSHEDPEVKFNWYVDGVEVHNAKTKPREEQYNSTYRVVSVLTVLHQDWLNGKEYKCKVSNKALPAPIEKTISKAKGQPREPRVYTLPPCRDELTKNQVSLTCLVKGFYPSDIAVEWESNGQPENNYKTTPPVLVSDGSFTLYSKLTVDKSRWQQGNVFSCSVMHEALHNHYTQKSLSLSPG
heavy: EVQLVESGGGLVKPGGSLRLSCAASGFTFSSYSMNWVRQAPGKGLEWVSSISSSSSYIYYADSVKGRFTISRDNAKNSLYLQMNSLRAEDTAVYYCARGAPIGAAAGWFDPWGQGTLVTVSSASTKGPSVFPLAPSSKSTSGGTAALGCLVKDYFPEPVTVSWNSGALTSGVHTFPAVLQSSGLYSLSSVVTVPSSSLGTQTYICNVNHKPSNTKVDKKVEPKSCDKTHTCPPCPAPELLGGPSVFLFPPKPKDTLMISRTPEVTCVVVDVSHEDPEVKFNWYVDGVEVHNAKTKPREEQYNSTYRVVSVLTVLHQDWLNGKEYKCKVSNKALPAPIEKTISKAKGQPREPQVCTLPPSRDELTENQVSLTCLVKGFYPSDIAVEWESNGQPENNYKTTPPVLDSDGSFFLYSWLTVDKSRWQQGNVFSCSVMHEALHNHYTQKSLSLSPG
light: DIQMTQSPSSVSASVGDRVTITCRASQGISSWLAWYQQKPGKAPKLLIYAASSLQSGVPSRFSGSGSGTDFTLTISSLQPEDFATYYCQQGVSFPRTFGGGTKVEIKRTVAAPSVFIFPPSDEQLKSGTASVVCLLNNFYPREAKVQWKVDNALQSGNSQESVTEQDSKDSTYSLSSTLTLSKADYEKHKVYACEVTHQGLSSPVTKSFNRGEC
notes: F3' format heterodimer of three chains; human IgG1 Fc with EW-RVT and Y349C/S354C mutations; also called AB0089 Lot AB0089-002; CLEC12A TriNKET AB0089
For B1, the “EC50, KHYG-1-CD16aV cytotoxicity assay, HL-60 cells; after low pH hold” value [1] was 0.11 nM, the “EC50, KHYG-1-CD16aV cytotoxicity assay, HL-60 cells; control sample” value [1] was 0.11 nM and the koff [2] was 0.0435 s⁻¹. For the same binder, the kon [3] was 1.01e+07 M⁻¹ s⁻¹, the koff [4] was 0.0373 s⁻¹ and the Kd [5] was 0.53 nM.

B2: AB0192 TriNKET (other)
chain: EVQLVESGGGVVQPGGSLRLSCAASGFTFNAFGMHWVRQAPGKCLEWVAFISSGSTSIYYANTVKGRFTISRDNSKNTLYLQMNSLRAEDTAVYYCARDGYPTGGAMDYWGQGTSVTVSSGGGGSGGGGSGGGGSGGGGSDIQMTQSPSSLSASVGDRVTITCKASQDIYNYLSWFQQKPGKAPKPLIYRANILVSGVPSRFSGSGSGQDYTFTISSLQPEDIATYYCLQFDAFPFTFGCGTKLEIKGSDKTHTCPPCPAPELLGGPSVFLFPPKPKDTLMISRTPEVTCVVVDVSHEDPEVKFNWYVDGVEVHNAKTKPREEQYNSTYRVVSVLTVLHQDWLNGKEYKCKVSNKALPAPIEKTISKAKGQPREPRVYTLPPCRDELTKNQVSLTCLVKGFYPSDIAVEWESNGQPENNYKTTPPVLVSDGSFTLYSKLTVDKSRWQQGNVFSCSVMHEALHNHYTQKSLSLSPG
heavy: EVQLVESGGGLVKPGGSLRLSCAASGFTFSSYSMNWVRQAPGKGLEWVSSISSSSSYIYYADSVKGRFTISRDNAKNSLYLQMNSLRAEDTAVYYCARGAPIGAAAGWFDPWGQGTLVTVSSASTKGPSVFPLAPSSKSTSGGTAALGCLVKDYFPEPVTVSWNSGALTSGVHTFPAVLQSSGLYSLSSVVTVPSSSLGTQTYICNVNHKPSNTKVDKKVEPKSCDKTHTCPPCPAPELLGGPSVFLFPPKPKDTLMISRTPEVTCVVVDVSHEDPEVKFNWYVDGVEVHNAKTKPREEQYNSTYRVVSVLTVLHQDWLNGKEYKCKVSNKALPAPIEKTISKAKGQPREPQVCTLPPSRDELTENQVSLTCLVKGFYPSDIAVEWESNGQPENNYKTTPPVLDSDGSFFLYSWLTVDKSRWQQGNVFSCSVMHEALHNHYTQKSLSLSPG
light: DIQMTQSPSSVSASVGDRVTITCRASQGISSWLAWYQQKPGKAPKLLIYAASSLQSGVPSRFSGSGSGTDFTLTISSLQPEDFATYYCQQGVSFPRTFGGGTKVEIKRTVAAPSVFIFPPSDEQLKSGTASVVCLLNNFYPREAKVQWKVDNALQSGNSQESVTEQDSKDSTYSLSSTLTLSKADYEKHKVYACEVTHQGLSSPVTKSFNRGEC
notes: the condition stands under assay; also called AB0192 Lot AB0192-005
With B2 the Kd (Human CLEC12A-His [6]) was 1.66 nM, the koff (Human CLEC12A-His [6]) was 0.00115 s⁻¹ and the kon (Human CLEC12A-His [6]) was 690000 M⁻¹ s⁻¹. It also gave a Kd (mFc-hNKG2D [7]) of 796 nM, a koff (mFc-hNKG2D [7]) of 0.142 s⁻¹ and a kon (mFc-hNKG2D [7]) of 178000 M⁻¹ s⁻¹. The Kd (Human CD16a V158 [8]) was 180 nM, the koff (Human CD16a V158 [8]) was 0.0212 s⁻¹ and the kon (Human CD16a V158 [8]) was 118000 M⁻¹ s⁻¹. For the same binder, the Kd (Human CD16a V158 [9]) was 178 nM, the Kd (Human CD16a F158) was 680 nM and the Kd (Cynomolgus CD16) was 204 nM. It also gave a Kd (Human CD32a R131) of 1400 nM, a Kd (Human CD32b) of 6060 nM and a Kd (Human CLEC12A-His [10]) of 1.65 nM. For the same binder, the koff (Human CLEC12A-His [10]) was 0.0013 s⁻¹, the kon (Human CLEC12A-His [10]) was 787000 M⁻¹ s⁻¹ and the Kd (mFc-hNKG2D [11]) was 574 nM. For the same binder, the koff (mFc-hNKG2D [11]) was 0.12 s⁻¹, the kon (mFc-hNKG2D [11]) was 210000 M⁻¹ s⁻¹ and the Kd (Human CD16a V158 [12]) was 192 nM. It also gave a koff (Human CD16a V158 [12]) of 0.0208 s⁻¹, a kon (Human CD16a V158 [12]) of 108000 M⁻¹ s⁻¹ and a Kd (Human CD16a V158 [13]) of 178 nM. The koff (Human CD16a V158 [13]) was 0.0199 s⁻¹ and the kon (Human CD16a V158 [13]) was 112000 M⁻¹ s⁻¹.
